Laboratory results from paper PMC3901395, “Multivalent interactions of the SUMO-interaction motifs in RING finger protein 4 determine the specificity for chains of the SUMO” (Biochemical Journal, 2013).
Changes are numbered by the printed parent chain.

B1: RNF4 1–125 (RNF4-SIM domain, wt), P78317 SIM3mut (protein)
chain: MSTRKRRGGAINSRQAQKRTREATSTPEISLEAEPIELVETAGDEIVDLTCESLEPVVAAAAHNDSVVIVDERRRPRRNARRLPQDHADSCVVSSDDEELSRDRDVYVTTHTPRNARDEGATGLR
B2: RNF4 1–125 (RNF4-SIM domain, wt), P78317 SIM4mut (protein)
chain: B1 chain with A59V, A60D, A61L, A62T, V67A, V68A, I69A, V70A
B3: RNF4 1–125 (RNF4-SIM domain, wt), P78317 SIM2mut (protein)
chain: B1 chain with V47A, D48A, L49A, T50A, A59V, A60D, A61L, A62T
B4: RNF4 1–125 (RNF4-SIM domain, wt), P78317 SIM3/4mut (protein)
chain: B1 chain with V67A, V68A, I69A, V70A
B5: RNF4 1–125 (RNF4-SIM domain, wt), P78317 SIM2/4mut (protein)
chain: MSTRKRRGGAINSRQAQKRTREATSTPEISLEAEPIELVETAGDEIAAAACESLEPVVVDLTHNDSAAAADERRRPRRNARRLPQDHADSCVVSSDDEELSRDRDVYVTTHTPRNARDEGATGLR
B6: RNF4 1–125 (RNF4-SIM domain, wt), P78317 SIM1/3mut (protein)
chain: B1 chain with I36A, E37A, L38A, V39A
B7: RNF4 1–125 (RNF4-SIM domain, wt), P78317 SIM2/3mut (protein)
chain: B1 chain with V47A, D48A, L49A, T50A
B8: RNF4 1–125 (RNF4-SIM domain, wt), P78317 SIM1/2mut (protein)
chain: B5 chain with I36A, E37A, L38A, V39A, A67V, A68V, A69I, A70V
B9: RNF4 1–125 (RNF4-SIM domain, wt), P78317 SIM1/4mut (protein)
chain: B5 chain with I36A, E37A, L38A, V39A, A47V, A48D, A49L, A50T

These binders were tested against linear tri-SUMO, P61956 (assay: ITC (calorimetric titration)). Conditions: chain shown with the change.
Sequence of linear tri-SUMO, P61956 (P61956 other isoform, or with tags, fused parts or gaps): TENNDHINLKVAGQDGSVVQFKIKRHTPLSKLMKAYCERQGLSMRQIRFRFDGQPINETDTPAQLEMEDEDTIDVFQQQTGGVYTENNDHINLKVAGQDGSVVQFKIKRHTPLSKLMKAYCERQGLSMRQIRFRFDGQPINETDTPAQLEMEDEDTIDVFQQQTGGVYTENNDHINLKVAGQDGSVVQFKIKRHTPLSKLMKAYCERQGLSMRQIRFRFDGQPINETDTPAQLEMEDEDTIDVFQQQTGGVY

Row | Binder | Kd
1 | B1 | 29 µM
2 | B2 | 20 µM
3 | B3 | 25 µM

Each binder was assayed against linear di-SUMO2 (2×SUMO2-ΔN11), P61956 (assay: ITC (calorimetric titration)). Conditions: chain shown with the change.
Sequence of linear di-SUMO2 (2×SUMO2-ΔN11), P61956 (P61956 other isoform, or with tags, fused parts or gaps mutant): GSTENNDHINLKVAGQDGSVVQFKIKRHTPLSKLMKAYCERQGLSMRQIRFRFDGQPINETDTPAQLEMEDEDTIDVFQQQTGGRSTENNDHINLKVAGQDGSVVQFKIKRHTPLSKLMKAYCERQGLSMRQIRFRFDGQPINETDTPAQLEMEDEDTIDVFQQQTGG

Row | Binder | Kd
4 | B4 | 69 µM
5 | B1 | 91 µM
6 | B5 | 69 µM
7 | B6 | 52 µM
8 | B7 | 110 µM
9 | B3 | 118 µM
10 | B8 | 56 µM

What follows are binders tested against linear tetra-SUMO2 (4×SUMO2-ΔN11), P61956 (assay: ITC (calorimetric titration)). Conditions: chain shown with the change.
Sequence of linear tetra-SUMO2 (4×SUMO2-ΔN11), P61956 (P61956 other isoform, or with tags, fused parts or gaps mutant): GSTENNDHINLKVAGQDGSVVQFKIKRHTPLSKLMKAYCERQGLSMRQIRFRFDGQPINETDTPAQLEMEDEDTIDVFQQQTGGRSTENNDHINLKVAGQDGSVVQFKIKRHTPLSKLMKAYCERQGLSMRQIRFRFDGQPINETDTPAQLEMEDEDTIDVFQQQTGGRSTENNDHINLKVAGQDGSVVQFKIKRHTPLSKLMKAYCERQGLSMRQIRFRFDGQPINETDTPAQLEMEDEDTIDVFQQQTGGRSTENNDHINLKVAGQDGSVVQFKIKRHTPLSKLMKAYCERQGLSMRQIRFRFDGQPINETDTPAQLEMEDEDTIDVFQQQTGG

Row | Binder | Kd
11 | B4 | 22 µM
12 | B1 | 2.2 µM
13 | B5 | 9.4 µM
14 | B2 | 2.8 µM
15 | B6 | 2.4 µM
16 | B7 | 48 µM
17 | B9 | 1.3 µM
18 | B3 | 2.1 µM
